The results in this text go back to publication PMC6056499, “A systematic dissection of sequence elements determining β-Klotho and FGF interaction and signaling” (Scientific Reports, 2018).

Assay [1] deals with human β-Klotho extracellular domain (aa1–992) fused with a 6 × His tag at the C-terminus (UniProt Q86Z14). The assay can be described thus: AlphaScreen. To be noted: parent: est. 1.0, read off a plot. A general note: Bead proximity is the source of the signal in Alpha formats.
For assay [2] the target is unchanged. Description: solid-phase binding assay. The conditions noted are these: parent: est. 1.0; read off a plot.
[3] abbreviates: competition with FGF19 for β-Klotho.
[4] abbreviates: competition with FGF21 for β-Klotho.

human β-Klotho extracellular domain (aa1–992) fused with a 6 × His tag at the C-terminus, sequence (Q86Z14 53-992): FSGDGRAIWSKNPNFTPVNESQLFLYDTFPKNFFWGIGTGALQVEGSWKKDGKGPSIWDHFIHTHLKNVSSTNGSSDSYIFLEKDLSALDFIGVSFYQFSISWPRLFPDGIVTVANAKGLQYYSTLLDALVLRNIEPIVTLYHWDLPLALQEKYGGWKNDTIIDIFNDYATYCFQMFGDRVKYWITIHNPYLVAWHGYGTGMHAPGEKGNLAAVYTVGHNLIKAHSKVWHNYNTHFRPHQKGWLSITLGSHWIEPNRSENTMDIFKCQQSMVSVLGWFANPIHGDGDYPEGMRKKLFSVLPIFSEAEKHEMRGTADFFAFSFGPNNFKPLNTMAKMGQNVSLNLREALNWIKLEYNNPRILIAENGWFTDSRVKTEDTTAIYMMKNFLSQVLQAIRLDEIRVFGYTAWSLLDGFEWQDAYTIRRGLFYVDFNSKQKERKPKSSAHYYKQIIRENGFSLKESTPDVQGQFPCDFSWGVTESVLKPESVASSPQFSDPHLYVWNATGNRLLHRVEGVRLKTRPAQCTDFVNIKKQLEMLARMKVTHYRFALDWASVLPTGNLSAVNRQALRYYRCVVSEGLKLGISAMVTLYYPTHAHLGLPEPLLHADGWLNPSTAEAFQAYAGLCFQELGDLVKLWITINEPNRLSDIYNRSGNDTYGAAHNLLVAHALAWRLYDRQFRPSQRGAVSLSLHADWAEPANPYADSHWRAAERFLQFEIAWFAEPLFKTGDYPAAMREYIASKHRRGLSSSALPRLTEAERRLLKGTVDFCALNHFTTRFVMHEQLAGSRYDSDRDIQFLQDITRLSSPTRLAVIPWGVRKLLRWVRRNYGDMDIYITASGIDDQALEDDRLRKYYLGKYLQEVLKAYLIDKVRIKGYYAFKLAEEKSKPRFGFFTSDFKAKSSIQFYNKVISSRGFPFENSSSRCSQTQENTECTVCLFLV
FGF19 C-terminal peptide, WT FGF19^185–216 (from UniProt O95750) 197M-A, sequence (O95750 185-216, change not shown): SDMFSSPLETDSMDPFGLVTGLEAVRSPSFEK
FGF19 C-terminal peptide, WT FGF19^185–216 (from UniProt O95750) 206L-A, sequence (O95750 185-216, change not shown): as above
FGF19 C-terminal peptide, WT FGF19^185–216 (from UniProt O95750) 186D-A, sequence (O95750 185-216, change not shown): as above
FGF19 C-terminal peptide, WT FGF19^185–216 (from UniProt O95750) 205G-A, sequence (O95750 185-216, change not shown): as above
FGF19 C-terminal peptide, WT FGF19^185–216 (from UniProt O95750) 194T-A, sequence (O95750 185-216, change not shown): as above
FGF19 C-terminal peptide, WT FGF19^185–216 (from UniProt O95750) 210R-A, sequence (O95750 185-216, change not shown): as above
FGF19 C-terminal peptide, WT FGF19^185–216 (from UniProt O95750) 215E-A, sequence (O95750 185-216, change not shown): as above
FGF19 C-terminal peptide, WT FGF19^185–216 (from UniProt O95750) 185S-A, sequence (O95750 185-216, change not shown): as above
FGF19 C-terminal peptide, WT FGF19^185–216 (from UniProt O95750) 195D-A, sequence (O95750 185-216, change not shown): as above
FGF19 C-terminal peptide, WT FGF19^185–216 (from UniProt O95750) 216K-A, sequence (O95750 185-216, change not shown): as above
FGF19 C-terminal peptide, WT FGF19^185–216 (from UniProt O95750) 193E-A, sequence (O95750 185-216, change not shown): as above
FGF19 C-terminal peptide, WT FGF19^185–216 (from UniProt O95750) 209V-A, sequence (O95750 185-216, change not shown): as above
FGF19 C-terminal peptide, WT FGF19^185–216 (from UniProt O95750) 191P-A, sequence (O95750 185-216, change not shown): as above
FGF19 C-terminal peptide, WT FGF19^185–216 (from UniProt O95750) 203V-A, sequence (O95750 185-216, change not shown): as above
FGF19 C-terminal peptide, WT FGF19^185–216 (from UniProt O95750) 201G-A, sequence (O95750 185-216, change not shown): as above
FGF19 C-terminal peptide, WT FGF19^185–216 (from UniProt O95750) 187M-A, sequence (O95750 185-216, change not shown): as above
FGF19 C-terminal peptide, WT FGF19^185–216 (from UniProt O95750) 190S-A, sequence (O95750 185-216, change not shown): as above
mature human FGF21 polypeptide fused with the human Fc fragment at the N-terminus (Fc-FGF21), wild type (from UniProt Q9NSA1) 172P-R, sequence (Q9NSA1 29-209, change not shown): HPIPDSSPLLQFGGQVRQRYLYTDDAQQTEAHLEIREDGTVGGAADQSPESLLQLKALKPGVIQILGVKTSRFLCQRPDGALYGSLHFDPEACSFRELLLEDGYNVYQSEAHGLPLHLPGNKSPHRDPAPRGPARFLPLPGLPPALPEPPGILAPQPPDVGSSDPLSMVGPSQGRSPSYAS
mature human FGF21 polypeptide fused with the human Fc fragment at the N-terminus (Fc-FGF21), wild type (from UniProt Q9NSA1) 180I-A, sequence (Q9NSA1 29-209, change not shown): as above
mature human FGF21 polypeptide fused with the human Fc fragment at the N-terminus (Fc-FGF21), wild type (from UniProt Q9NSA1) 168P-A, sequence (Q9NSA1 29-209, change not shown): as above
mature human FGF21 polypeptide fused with the human Fc fragment at the N-terminus (Fc-FGF21), wild type (from UniProt Q9NSA1) 175P-R, sequence (Q9NSA1 29-209, change not shown): as above
mature human FGF21 polypeptide fused with the human Fc fragment at the N-terminus (Fc-FGF21), wild type (from UniProt Q9NSA1) 178P-A, sequence (Q9NSA1 29-209, change not shown): as above
mature human FGF21 polypeptide fused with the human Fc fragment at the N-terminus (Fc-FGF21), wild type (from UniProt Q9NSA1) 174P-A, sequence (Q9NSA1 29-209, change not shown): as above
mature human FGF21 polypeptide fused with the human Fc fragment at the N-terminus (Fc-FGF21), wild type (from UniProt Q9NSA1) 195S-A, sequence (Q9NSA1 29-209, change not shown): as above
mature human FGF21 polypeptide fused with the human Fc fragment at the N-terminus (Fc-FGF21), wild type (from UniProt Q9NSA1) 209S-R, sequence (Q9NSA1 29-209, change not shown): as above
mature human FGF21 polypeptide fused with the human Fc fragment at the N-terminus (Fc-FGF21), wild type (from UniProt Q9NSA1) 201Q-A, sequence (Q9NSA1 29-209, change not shown): as above
mature human FGF21 polypeptide fused with the human Fc fragment at the N-terminus (Fc-FGF21), wild type (from UniProt Q9NSA1) 166P-A, sequence (Q9NSA1 29-209, change not shown): as above
mature human FGF21 polypeptide fused with the human Fc fragment at the N-terminus (Fc-FGF21), wild type (from UniProt Q9NSA1) 176E-R, sequence (Q9NSA1 29-209, change not shown): as above
mature human FGF21 polypeptide fused with the human Fc fragment at the N-terminus (Fc-FGF21), wild type (from UniProt Q9NSA1) 205P-R, sequence (Q9NSA1 29-209, change not shown): as above
mature human FGF21 polypeptide fused with the human Fc fragment at the N-terminus (Fc-FGF21), wild type (from UniProt Q9NSA1) 181L-R, sequence (Q9NSA1 29-209, change not shown): as above
mature human FGF21 polypeptide fused with the human Fc fragment at the N-terminus (Fc-FGF21), wild type (from UniProt Q9NSA1) 202G-A, sequence (Q9NSA1 29-209, change not shown): as above
mature human FGF21 polypeptide fused with the human Fc fragment at the N-terminus (Fc-FGF21), wild type (from UniProt Q9NSA1) 195S-R, sequence (Q9NSA1 29-209, change not shown): as above
FGF19 C-terminal peptide, WT FGF19^185–216 (from UniProt O95750) 213S-A, sequence (O95750 185-216, change not shown): as the sequence (O95750 185-216, change not shown) above
FGF19 C-terminal peptide, WT FGF19^185–216 (from UniProt O95750) 214F-A, sequence (O95750 185-216, change not shown): as above

Consider “FGF19 C-terminal peptide, WT FGF19^185–216 (from UniProt O95750) 214F-A”, for which, in assay [1] (setting [3]), the ratio to parent was 220.
In the case of “FGF19 C-terminal peptide, WT FGF19^185–216 (from UniProt O95750) 191P-A”, the ratio to parent is 0.8 in assay [1] (setting [3]) and 0.5 in assay [1] (setting [4]).
For “FGF19 C-terminal peptide, WT FGF19^185–216 (from UniProt O95750) 209V-A”, the ratio to parent in assay [1] (setting [3]) and in assay [1] (setting [4]) was 0.6 each time.
Take “FGF19 C-terminal peptide, WT FGF19^185–216 (from UniProt O95750) 197M-A”: the values for the ratio to parent in assay [1] (setting [3]) and in assay [1] (setting [4]) were 0.8 and 0.3, respectively.
For “FGF19 C-terminal peptide, WT FGF19^185–216 (from UniProt O95750) 186D-A”, in that order: 0.8 and 0.7.
Taken in the same sequence, the figures for “FGF19 C-terminal peptide, WT FGF19^185–216 (from UniProt O95750) 193E-A” were 0.3 and 0.3.
As for “FGF19 C-terminal peptide, WT FGF19^185–216 (from UniProt O95750) 201G-A”, the ratio to parent in assay [1] (setting [3]) is 19; in assay [1] (setting [4]), 20.
Taken in the same sequence, the figures for “FGF19 C-terminal peptide, WT FGF19^185–216 (from UniProt O95750) 205G-A” were 1.3 and 1.4.
Taken in the same sequence, the figures for “FGF19 C-terminal peptide, WT FGF19^185–216 (from UniProt O95750) 187M-A” were 1.2 and 0.9.
Turning to “FGF19 C-terminal peptide, WT FGF19^185–216 (from UniProt O95750) 203V-A”, the ratio to parent stood at 3.8 in assay [1] (setting [3]) and 5.5 in assay [1] (setting [4]).
For “FGF19 C-terminal peptide, WT FGF19^185–216 (from UniProt O95750) 213S-A”, the ratio to parent in assay [1] (setting [3]) was 90.
In the case of “FGF19 C-terminal peptide, WT FGF19^185–216 (from UniProt O95750) 194T-A”, the ratio to parent was found to be 2.1 in assay [1] (setting [3]) and 1.4 in assay [1] (setting [4]).
Taken in the same sequence, the figures for “FGF19 C-terminal peptide, WT FGF19^185–216 (from UniProt O95750) 185S-A” were 1.4 and 0.8.
Taken in the same sequence, the figures for “FGF19 C-terminal peptide, WT FGF19^185–216 (from UniProt O95750) 215E-A” were 7 and 5.2.
Taken in the same sequence, the figures for “FGF19 C-terminal peptide, WT FGF19^185–216 (from UniProt O95750) 210R-A” were 1.2 and 1.4.
For the substance “FGF19 C-terminal peptide, WT FGF19^185–216 (from UniProt O95750) 195D-A”, the ratio to parent in assay [1] (setting [3]) was determined as 5.5; in assay [1] (setting [4]), 4.5.
For “FGF19 C-terminal peptide, WT FGF19^185–216 (from UniProt O95750) 190S-A”, in that order: 2.9 and 1.4.
“mature human FGF21 polypeptide fused with the human Fc fragment at the N-terminus (Fc-FGF21), wild type (from UniProt Q9NSA1) 181L-R”: the ratio to parent in assay [2] stood at 1.2.
In the case of “FGF19 C-terminal peptide, WT FGF19^185–216 (from UniProt O95750) 216K-A”, the ratio to parent in assay [1] (setting [3]) and in assay [1] (setting [4]) was 0.2 each time.
Take “mature human FGF21 polypeptide fused with the human Fc fragment at the N-terminus (Fc-FGF21), wild type (from UniProt Q9NSA1) 169G-A”: in assay [2], the ratio to parent stood at 0.9.
Regarding “mature human FGF21 polypeptide fused with the human Fc fragment at the N-terminus (Fc-FGF21), wild type (from UniProt Q9NSA1) 195S-R”, the ratio to parent in assay [2] is 0.5.
Take “FGF19 C-terminal peptide, WT FGF19^185–216 (from UniProt O95750) 206L-A”: the ratio to parent is 0.9 in assay [1] (setting [3]) and 0.8 in assay [1] (setting [4]).
“mature human FGF21 polypeptide fused with the human Fc fragment at the N-terminus (Fc-FGF21), wild type (from UniProt Q9NSA1) 172P-R”: the ratio to parent in assay [2] worked out at 1.5.
As for “mature human FGF21 polypeptide fused with the human Fc fragment at the N-terminus (Fc-FGF21), wild type (from UniProt Q9NSA1) 186P-A”, the ratio to parent in assay [2] worked out at 12.
The same measure, in the same setting: then “mature human FGF21 polypeptide fused with the human Fc fragment at the N-terminus (Fc-FGF21), wild type (from UniProt Q9NSA1) 209S-R”, with 1.6.
The same measure, in the same setting: then “mature human FGF21 polypeptide fused with the human Fc fragment at the N-terminus (Fc-FGF21), wild type (from UniProt Q9NSA1) 201Q-A”, with 0.6; and “mature human FGF21 polypeptide fused with the human Fc fragment at the N-terminus (Fc-FGF21), wild type (from UniProt Q9NSA1) 171P-A”, with 1.2; and “mature human FGF21 polypeptide fused with the human Fc fragment at the N-terminus (Fc-FGF21), wild type (from UniProt Q9NSA1) 200S-A”, with 0.8.
Still for that read-out and setting: then “mature human FGF21 polypeptide fused with the human Fc fragment at the N-terminus (Fc-FGF21), wild type (from UniProt Q9NSA1) 187D-A”, with 14.
With “mature human FGF21 polypeptide fused with the human Fc fragment at the N-terminus (Fc-FGF21), wild type (from UniProt Q9NSA1) 205P-R”, the ratio to parent in assay [2] came out at 220.
Consider “mature human FGF21 polypeptide fused with the human Fc fragment at the N-terminus (Fc-FGF21), wild type (from UniProt Q9NSA1) 174P-A”, for which, in assay [2], the ratio to parent is 0.6.
Still for that read-out and setting: then “mature human FGF21 polypeptide fused with the human Fc fragment at the N-terminus (Fc-FGF21), wild type (from UniProt Q9NSA1) 195S-A”, with 3.
On the same count and under the same terms, the same measure for “mature human FGF21 polypeptide fused with the human Fc fragment at the N-terminus (Fc-FGF21), wild type (from UniProt Q9NSA1) 178P-A”: 0.7; for “mature human FGF21 polypeptide fused with the human Fc fragment at the N-terminus (Fc-FGF21), wild type (from UniProt Q9NSA1) 180I-A”: 0.6.
As for “mature human FGF21 polypeptide fused with the human Fc fragment at the N-terminus (Fc-FGF21), wild type (from UniProt Q9NSA1) 180I-R”, the ratio to parent in assay [2] was determined as 2.3.
Turning to “mature human FGF21 polypeptide fused with the human Fc fragment at the N-terminus (Fc-FGF21), wild type (from UniProt Q9NSA1) 188V-A”, the ratio to parent in assay [2] was found to be 200.
Take “mature human FGF21 polypeptide fused with the human Fc fragment at the N-terminus (Fc-FGF21), wild type (from UniProt Q9NSA1) 184Q-A”: the ratio to parent in assay [2] was determined as 1.2.
As for “mature human FGF21 polypeptide fused with the human Fc fragment at the N-terminus (Fc-FGF21), wild type (from UniProt Q9NSA1) 175P-R”, the ratio to parent in assay [2] was found to be 1.4.
Same read-out and setting: then “mature human FGF21 polypeptide fused with the human Fc fragment at the N-terminus (Fc-FGF21), wild type (from UniProt Q9NSA1) 168P-A”, with 0.5; and “mature human FGF21 polypeptide fused with the human Fc fragment at the N-terminus (Fc-FGF21), wild type (from UniProt Q9NSA1) 183P-R”, with 1; and “mature human FGF21 polypeptide fused with the human Fc fragment at the N-terminus (Fc-FGF21), wild type (from UniProt Q9NSA1) 165L-A”, with 1.
Still for that read-out and setting: the same measure for “mature human FGF21 polypeptide fused with the human Fc fragment at the N-terminus (Fc-FGF21), wild type (from UniProt Q9NSA1) 176E-R”: 1.6; for “mature human FGF21 polypeptide fused with the human Fc fragment at the N-terminus (Fc-FGF21), wild type (from UniProt Q9NSA1) 209S-A”: 0.5; for “mature human FGF21 polypeptide fused with the human Fc fragment at the N-terminus (Fc-FGF21), wild type (from UniProt Q9NSA1) 164F-R”: 3.
Consider “mature human FGF21 polypeptide fused with the human Fc fragment at the N-terminus (Fc-FGF21), wild type (from UniProt Q9NSA1) 166P-A”, for which the ratio to parent in assay [2] is 0.6.
Same read-out and setting: then “mature human FGF21 polypeptide fused with the human Fc fragment at the N-terminus (Fc-FGF21), wild type (from UniProt Q9NSA1) 202G-A”, with 1.8.
